Measurements as given in PMC7596504, “Molecular mechanism of the MORC4 ATPase activation” (Nature Communications, 2020).

Tests used:
MORC4 = assay: ATPase activity assay (EnzChek Phosphate Assay Kit); format: biochemical, human; parameters: Rate of ATP hydrolysis: unit not given here; settings: for Rate of ATP hydrolysis: no DNA, no peptide
Method: To determine whether MORC4 is catalytically active, we produced the ATPase domain of human MORC4 and examined its ability to hydrolyze ATP in enzymatic assays (Fig. 1a–c). Following incubation of the ATPase domain with ATP, 2-amino-6-mercapto-7-methylpurine ribonucleoside and nucleoside phosphorylase, the release of inorganic phosphate generated by the hydrolysis of ATP to ADP was monitored by measuring an increase in absorbance at 360 nm.
The ATPase assays were performed using the EnzChek Phosphate Assay Kit (Invitrogen, item # E6646). The reactions were carried out on 1.0 µM of MORC4 His-ATPase or ATPaseCW (WT and mutants), in the presence and absence of 1 µM 601 DNA or 50 µM of unmodified H3 or H3K4me3 peptide (aa 1–12 of H3) in a buffer containing 50 mM Tris-HCl (pH 7.5), 150 mM NaCl, 1 mM MgCl2, 0.1 mM sodium azide, 200 µM MESG, and 1 U of PNP. In assay with the nucleosome, 0.5 µM of MORC4 ATPaseCW and 0.5 µM NCP167 (Activemotif) were used. The reaction was started by adding 2 mM ATP to the mixture at room temperature, and the release of inorganic phosphate was monitored by measuring the absorbance at 360 nm on a Nanodrop 2000c spectrophotometer (Thermo Scientific). In the presence of inorganic phosphate, produced by the hydrolysis of ATP to ADP, MESG is enzymatically converted to ribose 1-phosphate and […] by PNP, resulting in a shift in the wavelength absorbance from 330 nm for MESG to 360 nm for the product. The rate of ATP self-hydrolysis was measured in parallel. Error was calculated as the S.D. of at least three separate experiments (two in Fig. 4j).

MORC4 CW domain = target: T1, MORC4 CW domain (Homo sapiens, UniProt Q8TE76); assay: 1H,15N HSQC NMR titration of MORC4 CW; format: binding
T1 construct: The CW domain (aa 417–475) of MORC4 was cloned into a pGEX 6p-1 vector; GST (N, cleaved yes); made in house; host or cells: E. coli Rosetta2 (DE3) pLysS or BL21 (DE3) RIL
T1 sequence (Q8TE76 417-475): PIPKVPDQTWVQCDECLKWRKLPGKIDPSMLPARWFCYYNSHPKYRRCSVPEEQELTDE
Method: NMR experiments were carried out at 298 K on a Varian INOVA 600 and 900 MHz spectrometers. His-tagged MORC4 ATPase (1–411) was expressed and purified as described above and used without cleavage of the tag. NMR samples contained 0.1 mM uniformly ^15N-labeled WT or mutated CW in 20 mM Tris-HCl (pH 7) buffer supplemented with 100 mM NaCl, 5 mM DTT, and 10% D2O. Binding was characterized by monitoring CSPs in the proteins induced by H3 peptides or the ATPase domain. For the CWKRR mutant, NMR experiments were performed in 20 mM Tris-HCl (pH 6.8) buffer supplemented with 150 mM NaCl, 2 mM DTT, and 10% D2O.

NCP147 [1] = assay: Fluorescence polarization binding to NCP147
NCP207 = assay: Fluorescence polarization binding to NCP207
Method: Fluorescence polarization measurements were acquired with a Tecan infinite M1000Pro plate reader by exciting at 470 nm and measuring polarized emission at 519 nm with 5 nm excitation and emission bandwidths. The fluorescence polarization was calculated from the emission polarized parallel and perpendicular to the polarized excitation light. Fluorescence polarization measurements were carried out using increasing concentrations of MORC4 ATPaseCW, ATPase alone, or CW alone with 5 nM 207 bp Fluorescein-labeled NCPs in 15 mM Tris pH 7.5, 75 mM NaCl, 0.00625% Tween 20, and 5 mM dithiothreitol buffer in 30 µL reaction volumes. The samples were loaded into a Corning round bottom black polystyrene plate and incubated at room temperature for 10 min before fluorescence polarization measurements of the samples were taken. The data were then fit to a non-cooperative binding isotherm to determine S1/2 values. Errors represent a S.D. between the S1/2 values based on three runs.
Histone octamers unlabeled or labeled with Cy5 at H2AK119 were prepared as previously described. NCPs were reconstituted by combining octamer with 1.25× excess DNA and performing slow salt dialysis. Free DNA was then separated from fully reconstituted NCPs by sucrose gradient purification. NCPs for fluorescence polarization assays were reconstituted from unlabeled octamer and 207 bp DNA containing the 601 Widom sequence flanked with a 30 bp linker on either side and internally labeled with Fluorescein 27 bp in from the 5′ end. Cy3-Cy5 labeled NCPs for FRET assays were reconstituted with Cy5 labeled octamer plus either 147 bp 601 Widom DNA containing a LexA transcription factor binding site at bases 8–27[34], or 252 bp DNA containing the 601 Widom sequence with a 75 bp linker at the 3′ end, a 30 bp linker at the 5’ end, and a Gal4 transcription factor binding site at bases 8–26 in the 601 Widom sequence. The 147 bp LexA-binding DNA was labeled with Cy3 on the 5′ end, and the 252 bp Gal4-binding DNA was internally labeled with Cy3 34 bp in from the 5′ end.

NCP147 [2] = assay: EMSA with NCP147; format: binding; settings: 5 nM 147 bp fluorescein-labeled NCP, pH 7.5, 4 °C
Method: EMSAs were performed by mixing increasing amounts of MORC4 ATPase with 5 nM 147 bp fluorescein-labeled NCP in 25 mM Tris-HCl pH 7.5, 75 mM NaCl, 25 mM Tris-HCl pH 7.5, 0.005% Tween 20, and 10% glycerol buffer in a 12 μL reaction volume. Each sample was incubated at 4 °C for 5 min and then loaded onto a 5% native polyacrylamide gel. Electrophoresis was performed in 0.3× Tris-borate-EDTA (TBE) at 300 V for 90 min. Fluorescein fluorescence images were acquired with a Typhoon Phosphor Imager.

Rate of ATP hydrolysis (MORC4; 1.0 µM protein, 2 mM ATP, pH 7.5, room temperature, absorbance 360 nm, Fig. 1b,c, mean): 0.08049
Rate of ATP hydrolysis (MORC4; Fig. 1b, replicate 4): 0.02158
Rate of ATP hydrolysis (MORC4; Fig. 1b, replicate 5): 0.01439
interaction with CW by chemical shift perturbations (MORC4 CW domain; 15N-labeled WT CW 0.1 mM, pH 7, 100 mM NaCl, 298 K): formation of the large ATPase:CW complex
decrease in binding to NCP147 compared to NCP207 (NCP147 [1]; NCP147 vs NCP207 (peer review file)): 5 fold
S1/2 (NCP147 [1]; fluorescence polarization, pH 7.5, 75 mM NaCl, room temperature, 10 min, mean of n = 3): 2.3 µM
increase in interaction with NCP207 relative to NCP147 (NCP207; NCP207 vs NCP147): ~ 5 fold
S1/2 (NCP207; fluorescence polarization, 5 nM NCP207, pH 7.5, 75 mM NaCl, room temperature, 10 min, mean ± S.D. of n = 3): 0.50 ± 0.08 µM
binding to NCP147 in EMSA (NCP147 [2]): bound to NCP147
B1: ATPase: ATPase domain (aa 29–411) of human MORC4 (Q8TE76) (protein, UniProt Q8TE76 29-411, looked up, fragment)
chain: GIRLSTMSPRYLQSNSSSHTRPFSAIAELLDNAVDPDVSARTVFIDVEEVKNKSCLTFTDDGCGMTPHKLHRMLSFGFTDKVIKKSQCPIGVFGNGFKSGSMRLGKDALVFTKNGGTLTVGLLSQTYLECVQAQAVIVPIVPFNQQNKKMIITEDSLPSLEAILNYSIFNRENDLLAQFDAIPGKKGTRVLIWNIRRNKNGKSELDFDTDQYDILVSDFDTEEKMTGGVTSELPETEYSLRAFCGILYMKPRMKIFLRQKKVTTQMIAKSLANVEYDTYKPTFTNKQVRITFGFSCKNSNQFGIMMYHNNRLIKSFEKVGCQVKPTRGEGVGVIGVIECNFLKPAYNKQDFEYTKEYRLTINALAQKLNAYWKEKTSQDNFET
catalytic (ATPase) activity of the protein (MORC4): possesses little ATP hydrolyzing activity
competition with H3 peptide for CW (MORC4 CW domain; titration into the CW:H3 complex): disruption of the CW:H3 complex and formation of the complex between CW and the ATPase domain
